This passage reports proliferation of Mv1Lu cells with a constant 60 ng/ml latent TGFβ pre-incubated with 10-40 ng/ml GARPTS; value and stoichiometry N (GARP per TGFβ) results from article PMC4824412.

Values joined by “and” are separate entries in the source; they are usually repeats but may differ in a detail not shown here. Equal entries are not always repeated. Where only a bound is given, the exact number is not on record here.

Assay [1] has as its target GARPTS, soluble tail switch mutant of human GARP (glycoprotein A repetitions predominant) (human) (UniProt Q14392).
For assay [2] the target is unchanged. The assay is described as follows: non-reducing SDS-PAGE and western blot of disulfide-linked complexes; GARPTS (300 ng) and a mixture of pro-TGFβ and latent TGFβ (600 ng) incubated overnight at RT in redox buffer (oxidized glutathione and 2 mM free cysteine), no pull-down; 10% gel, non-reducing; anti-Strep-tag or anti-His-tag antibodies.

Regarding “recombinant latent TGFβ (furin-cleaved pro-TGFβ; LAP non-covalently bound to the mature cytokine) (complex)”, the proliferation of Mv1Lu cells with a constant 60 ng/ml latent TGFβ pre-incubated with 10-40 ng/ml GARPTS; value at approximately 40 ng/ml (0.5 nM) GARPTS in assay [1] was < 60%. Besides, in assay [2], the stoichiometry N (GARP per TGFβ) was 2 and 1.
As to “recombinant pro-TGFβ (not cleaved by furin) (natural protein)”, the stoichiometry N (GARP per TGFβ) in assay [2] was 2 and 1.
